Results from article PMC7055916.

Biological target: T. brucei PNUTS with PTP tag, bloodstream form (T. brucei)
Assay: co-sedimentation; extracts of bloodstream form T. brucei expressing PNUTS-PTP and JBP3-HA or Wdr82-HA on 5-50% sucrose gradients, 38000 rpm 18 hours, fractions analysed by western blot

Row | stoichiometry N | Substance
1 | 1 | T. brucei JBP3 with 3x HA tag, bloodstream form (natural protein)
2 | 1 | T. brucei Wdr82 with 3x HA tag, bloodstream form (natural protein)
